The results in this text go back to patent US20230279089A1 (GlaxoSmithKline, published 2023).

For one experiment, the target named is T1, Human BMP1-1 (human, UniProt P13497-2 121-730, limits assumed).
T1 sequence (looked up): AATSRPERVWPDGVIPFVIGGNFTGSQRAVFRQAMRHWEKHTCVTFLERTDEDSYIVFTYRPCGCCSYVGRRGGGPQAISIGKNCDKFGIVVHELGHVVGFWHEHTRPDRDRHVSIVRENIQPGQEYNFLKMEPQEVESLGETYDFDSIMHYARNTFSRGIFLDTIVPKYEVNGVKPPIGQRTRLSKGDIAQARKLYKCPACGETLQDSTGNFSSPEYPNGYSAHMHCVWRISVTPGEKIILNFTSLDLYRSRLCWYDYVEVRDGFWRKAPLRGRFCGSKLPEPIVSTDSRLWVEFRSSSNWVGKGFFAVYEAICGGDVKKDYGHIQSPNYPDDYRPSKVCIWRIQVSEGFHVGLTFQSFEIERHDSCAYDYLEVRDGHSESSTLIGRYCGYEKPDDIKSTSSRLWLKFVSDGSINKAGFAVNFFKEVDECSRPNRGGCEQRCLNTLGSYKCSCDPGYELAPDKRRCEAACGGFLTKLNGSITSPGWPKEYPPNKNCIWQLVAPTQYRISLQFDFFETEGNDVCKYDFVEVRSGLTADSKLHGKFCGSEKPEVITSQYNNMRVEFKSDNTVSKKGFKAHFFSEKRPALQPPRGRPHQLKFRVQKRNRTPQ
Nature of the experiment: cell-based or functional assay.

In another experiment the target is T2, Mouse BMP1-3: 126-707 (mouse, UniProt P98063 126-707).
T2 sequence (looked up): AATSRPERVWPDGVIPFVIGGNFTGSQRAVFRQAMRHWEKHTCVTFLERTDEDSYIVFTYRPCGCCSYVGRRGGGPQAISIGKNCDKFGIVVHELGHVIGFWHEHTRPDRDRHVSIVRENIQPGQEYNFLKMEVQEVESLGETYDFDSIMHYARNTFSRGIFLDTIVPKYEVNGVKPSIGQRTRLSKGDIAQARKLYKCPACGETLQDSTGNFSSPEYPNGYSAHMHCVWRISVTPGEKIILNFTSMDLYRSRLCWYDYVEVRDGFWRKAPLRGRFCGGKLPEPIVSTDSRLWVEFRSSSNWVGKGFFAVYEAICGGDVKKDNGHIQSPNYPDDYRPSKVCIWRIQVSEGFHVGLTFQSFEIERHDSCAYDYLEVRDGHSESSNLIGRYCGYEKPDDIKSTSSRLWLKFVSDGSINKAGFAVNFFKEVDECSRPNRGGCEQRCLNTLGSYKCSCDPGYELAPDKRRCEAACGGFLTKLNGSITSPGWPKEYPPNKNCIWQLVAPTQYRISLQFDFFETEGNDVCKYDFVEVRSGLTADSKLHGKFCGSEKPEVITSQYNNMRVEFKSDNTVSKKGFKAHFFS
Nature of the experiment: cell-based or functional assay.

In experiment [1] the target is T3, Human BMP1 CD+CUB1 truncated antigen (human, UniProt P13497 121-434, limits assumed).
T3 construct: domain: CD+CUB1
T3 sequence (looked up): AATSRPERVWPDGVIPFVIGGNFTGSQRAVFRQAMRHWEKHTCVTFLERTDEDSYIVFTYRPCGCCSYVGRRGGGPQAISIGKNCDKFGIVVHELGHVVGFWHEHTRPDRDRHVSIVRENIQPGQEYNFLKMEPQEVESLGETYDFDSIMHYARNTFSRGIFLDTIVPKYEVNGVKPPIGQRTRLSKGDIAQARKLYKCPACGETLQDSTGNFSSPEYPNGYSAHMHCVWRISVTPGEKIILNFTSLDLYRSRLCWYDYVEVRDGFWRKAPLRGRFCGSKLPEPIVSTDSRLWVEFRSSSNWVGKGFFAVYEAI
The experiment in a line: SPR, captured mAb, HBS-EP. A general note: Surface plasmon resonance follows binding to a sensor surface in real time, without labels.

Experiment [2] has as its target T4, Human TLL2 CD+CUB1 truncated antigen (human, UniProt Q9Y6L7 150-463, limits assumed).
T4 construct: domain: CD+CUB1
T4 sequence (looked up): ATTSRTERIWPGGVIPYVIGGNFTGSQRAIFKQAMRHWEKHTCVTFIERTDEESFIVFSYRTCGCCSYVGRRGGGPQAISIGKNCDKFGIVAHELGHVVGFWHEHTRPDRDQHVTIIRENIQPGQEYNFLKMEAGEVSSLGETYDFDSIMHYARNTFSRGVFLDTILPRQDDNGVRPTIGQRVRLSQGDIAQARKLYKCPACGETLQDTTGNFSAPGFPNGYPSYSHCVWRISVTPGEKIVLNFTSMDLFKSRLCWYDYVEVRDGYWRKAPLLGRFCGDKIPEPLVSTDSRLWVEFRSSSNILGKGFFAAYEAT
Nature of the experiment: SPR, captured mAb, HBS-EP. How it is done:
(§1) Both antibodies 13Y039-4B06-4334 and 13Y039-3E07-2944 and the reverse chimeric antibodies were evaluated for binding to human TLL2 CD+CUB1 and mouse BMP1 CD+CUB1 truncated antigens by SPR on a BIACORE T200. Protein A/G was immobilised to a CM5 sensor chip via amine coupling and the antibodies were captured to the protein A/G surface. The antigens were passed over the captured antibody at various concentrations. The measured affinities to human TLL2 CD+CUB1 are shown in Table 2 and the measured affinities to mouse BMP1 CD+CUB1 are shown in Table 3.

Experiment [3] addresses T5, Mouse BMP1 CD+CUB1 truncated antigen (mouse, UniProt P98063 126-439, limits assumed).
T5 construct: domain: CD+CUB1
T5 sequence (looked up): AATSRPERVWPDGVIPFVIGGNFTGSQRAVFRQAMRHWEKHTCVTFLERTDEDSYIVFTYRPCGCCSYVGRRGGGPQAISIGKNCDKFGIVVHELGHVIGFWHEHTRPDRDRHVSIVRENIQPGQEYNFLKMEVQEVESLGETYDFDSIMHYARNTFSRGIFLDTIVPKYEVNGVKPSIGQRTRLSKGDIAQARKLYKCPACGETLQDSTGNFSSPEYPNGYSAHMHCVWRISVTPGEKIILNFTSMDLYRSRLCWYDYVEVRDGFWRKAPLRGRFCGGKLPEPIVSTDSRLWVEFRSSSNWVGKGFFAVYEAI
Nature of the experiment: SPR, captured mAb, HBS-EP. The protocol:
as §1

Experiment [4] concerns the target T3, Human BMP1 CD+CUB1 truncated antigen. The experiment in a line: SPR, captured mAb, enzyme dilution buffer.

Values joined by “and” are separate entries in the source; they are usually repeats but may differ in a detail not shown here. Equal values may be shown once.

B1: 13Y039-4B06-4334 human variable region on rat IgG2b LAGA Fc and rat Kappa (Compound C) (antibody)
heavy: QVQLVQSGAEVKKPGASVKVSCKASGYTFLGYYMSWVRQAPGQGLEWMGWINPLSGETNYAQKFQGRVTMTRDTSISTAYMELSRLRSDDTAVYYCARDTGELDGMNWYFDLWGRGTLVTVSSAQTTAPSVYPLAPGCGDTTSSTVTLGCLVKGYFPEPVTVTWNSGALSSDVHTFPAVLQSGLYTLTSSVTSSTWPSQTVTCNVAHPASSTKVDKKVERRNGGIGHKCPTCPTCHKCPVPELAGAPSVFIFPPKPKDILLISQNAKVTCVVVDVSEEEPDVQFSWFVNNVEVHTAQTQPREEQYNSTFRVVSALPIQHQDWMSGKEFKCKVNNKALPSPIEKTISKPKGLVRKPQVYVMGPPTEQLTEQTVSLTCLTSGFLPNDIGVEWTSNGHIEKNYKNTEPVMDSDGSFFMYSKLNVERSRWDSRAPFVCSVVHEGLHNHHVEKSISRPPGK
light: EIVLTQSPATLSLSPGERATLSCRASQSVSSYLAWYQQKPGQAPRLLIYDASNRATGIPARFSGSGSGTDFTLTISSLEPEDFAVYYCQQSDSWPPTFGGGTKVEIKRADAAPTVSIFPPSTEQLATGGASVVCLMNNFYPRDISVKWKIDGTERRDGVLDSVTDQDSKDSTYSMSSTLSLTKADYESHNLYTCEVVHKTSSSPVVKSFNRNEC
As for B1, in the experiment with Human BMP1-1, the “pKi, app, FRET enzyme activity, Human BMP1” value is 11.8. For the same molecule, in the experiment with Mouse BMP1-3: 126-707, the “pKi, app, FRET enzyme activity, Mouse BMP1” value turned out to be 11.3.

B2: 13Y039-3E07-2944 human variable region on mouse IgG2a LAGA Fc, mouse cKappa (Compound B) (antibody)
heavy: QVQLQQWGAGLLKPSETLSLTCAVYGGSFFGDYWSWIRQPPGKGLEWIGEIDWSGATNYNPSLKSRVTISVDTSKNQFSLKLSSVTAADTAVYYCARGGSKELSFDIWGQGTMVTVSSAKTTAPSVYPLAPVCGDTTGSSVTLGCLVKGYFPEPVTLTWNSGSLSSGVHTFPAVLQSDLYTLSSSVTVTSSTWPSQSITCNVAHPASSTKVDKKIEPRGPTIKPCPPCKCPAPNLAGAPSVFIFPPKIKDVLMISLSPIVTCVVVDVSEDDPDVQISWFVNNVEVHTAQTQTHREDYNSTLRVVSALPIQHQDWMSGKEFKCKVNNKDLPAPIERTISKPKGSVRAPQVYVLPPPEEEMTKKQVTLTCMVTDFMPEDIYVEWTNNGKTELNYKNTEPVLDSDGSYFMYSKLRVEKKNWVERNSYSCSVVHEGLHNHHTTKSFSRTPGK
light: DIQMTQSPSSLSASVGDRVTITCQASQDIANYLNWYQQKPGKAPKLLIYDASNLETGVPSRFSGSGSGTDFTFTISSLQPEDIATYYCQQADTLPFTFGGGTKVEIKRADAAPTVSIFPPSSEQLTSGGASVVCFLNNFYPKDINVKWKIDGSERQNGVLNSWTDQDSKDSTYSMSSTLTLTKDEYERHNSYTCEATHKTSTSPIVKSFNRNEC
notes: Reverse chimera; also called 13Y039-3E07-2944, mIgG2a LAGA
By Kd is commonly meant a measure of binding affinity in units of concentration. Low values mean higher affinity, high ones lower affinity. With B2, the dissociation constant Kd in experiment [1] was 5.31 nM; in experiment [3] it was 2.66 nM and 6.2 nM; in experiment [4], 0.07 nM. Moreover, the binding result in experiment [2] is “no binding”.
